The results in this text go back to patent US20160271230A1 (UNIVERSITY HEALTH NETWORK, published 2016).

Assay [1] has as its target T1, Neogenin (full-length, 180 kDa) (chick, UniProt Q90610 1-1443).
T1 construct: Endogenous Neogenin of chick brain membranes, retinal axons and tecta, or Neogenin transfected into HEK293 cells; in Western blots it stood denatured
T1 sequence: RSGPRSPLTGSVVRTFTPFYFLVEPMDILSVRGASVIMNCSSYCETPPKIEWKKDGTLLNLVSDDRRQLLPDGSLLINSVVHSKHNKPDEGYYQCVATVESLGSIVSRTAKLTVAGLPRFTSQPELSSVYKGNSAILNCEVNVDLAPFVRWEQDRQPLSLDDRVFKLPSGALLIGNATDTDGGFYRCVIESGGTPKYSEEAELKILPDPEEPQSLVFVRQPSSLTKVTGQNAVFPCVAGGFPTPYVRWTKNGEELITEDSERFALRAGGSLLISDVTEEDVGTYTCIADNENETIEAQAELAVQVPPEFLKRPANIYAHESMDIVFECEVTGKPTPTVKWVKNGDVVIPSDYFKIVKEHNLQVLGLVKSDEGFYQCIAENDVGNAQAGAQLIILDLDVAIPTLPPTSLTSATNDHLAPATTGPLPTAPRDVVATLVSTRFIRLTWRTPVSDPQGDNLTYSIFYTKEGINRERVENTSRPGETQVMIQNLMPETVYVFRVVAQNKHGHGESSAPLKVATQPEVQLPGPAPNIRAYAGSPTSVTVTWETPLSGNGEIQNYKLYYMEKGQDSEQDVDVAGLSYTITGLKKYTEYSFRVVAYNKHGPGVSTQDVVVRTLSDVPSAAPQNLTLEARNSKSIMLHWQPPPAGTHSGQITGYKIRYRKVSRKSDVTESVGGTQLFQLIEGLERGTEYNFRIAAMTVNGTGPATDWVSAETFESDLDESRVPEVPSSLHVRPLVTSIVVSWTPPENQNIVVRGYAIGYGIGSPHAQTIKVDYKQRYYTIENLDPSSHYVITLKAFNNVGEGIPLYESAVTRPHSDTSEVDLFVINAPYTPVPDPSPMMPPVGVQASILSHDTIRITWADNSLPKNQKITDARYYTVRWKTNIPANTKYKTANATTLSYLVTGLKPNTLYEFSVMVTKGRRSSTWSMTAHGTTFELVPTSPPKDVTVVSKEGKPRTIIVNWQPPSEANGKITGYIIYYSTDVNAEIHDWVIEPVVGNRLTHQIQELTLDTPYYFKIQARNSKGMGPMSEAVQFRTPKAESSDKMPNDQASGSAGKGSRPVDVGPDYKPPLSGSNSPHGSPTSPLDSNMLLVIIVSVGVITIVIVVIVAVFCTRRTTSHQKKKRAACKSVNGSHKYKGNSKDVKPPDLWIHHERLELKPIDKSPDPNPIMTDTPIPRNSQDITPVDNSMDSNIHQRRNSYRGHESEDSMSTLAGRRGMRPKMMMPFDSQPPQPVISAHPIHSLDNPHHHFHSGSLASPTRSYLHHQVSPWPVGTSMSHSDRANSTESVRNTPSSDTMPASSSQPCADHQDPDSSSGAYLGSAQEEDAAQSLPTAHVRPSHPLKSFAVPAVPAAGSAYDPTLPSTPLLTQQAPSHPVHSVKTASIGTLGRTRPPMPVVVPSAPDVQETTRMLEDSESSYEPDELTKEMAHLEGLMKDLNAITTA
The assay can be described thus: cell-based or functional assay.

Assay [2] addresses T1, Neogenin (full-length, 180 kDa). Put plainly: told in a figure legend; assay not named there (peptide also used on beads in the pull-down of FIG. 2B).
Assay [3] has as its target T2, His-tagged 4Ig-domain of Neogenin (Gallus gallus, UniProt Q90610 1-383).
T2 construct: Secreted from transfected cells, purified on Ni-NTA; also called His-4Ig; Neogenin-4Ig; not shown: 6-His tag at the N-terminus; myc and 6-His tags of the pSectag 2B vector at the C-terminus
T2 sequence: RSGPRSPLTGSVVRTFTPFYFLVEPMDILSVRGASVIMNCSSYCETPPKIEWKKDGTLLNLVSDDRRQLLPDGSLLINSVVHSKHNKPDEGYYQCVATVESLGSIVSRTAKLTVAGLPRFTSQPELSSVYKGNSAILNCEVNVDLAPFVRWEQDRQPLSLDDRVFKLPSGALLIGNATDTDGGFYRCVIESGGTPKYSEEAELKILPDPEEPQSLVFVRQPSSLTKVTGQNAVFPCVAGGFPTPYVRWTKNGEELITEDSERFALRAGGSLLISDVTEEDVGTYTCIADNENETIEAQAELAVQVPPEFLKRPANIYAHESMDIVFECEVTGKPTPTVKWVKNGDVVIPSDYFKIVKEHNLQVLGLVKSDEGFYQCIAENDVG
Put plainly: plate binding assay, AP-tagged fragment on coated His-tagged 4Ig-domain (FIG. 17C). How it is done: (§1) Using a 96-well microtiter plate (Corning Incorporated), wells were coated with 100 μl (10 μg/mL) of Poly-L-Lysine at 4° C. overnight. Wells were then washed three times with 100 μl of PBST (+0.02% Tween). 50 μl (2.5 μg/mL) of His-tagged: Full-length Neogenin; 4 Ig Neogenin; and FNIII Neogenin were coated onto each well for 1 hour at 37° C. Following three washes of 100 μl PBST, each well was then blocked with 300 μl of 3% BSA in PBST for 1 hour at 37° C. 50 μl (1.0 μg/mL) AP-tagged: N-RGMa (28-73); N-RGMa (28-54); N-RGMa (40-62); N-RGMa (54-73); N-RGMa (54-62) in 1% BSA+PBST was then added to each well and incubated at 37° C. for 1 hour. Each well was washed thoroughly three times with 100 μl PBST followed by subsequent equilibration of each well with Alkaline Phosphatase (AP) developing buffer (100 mM NaHCO₃, 1 mM MgCl₂). The reaction was developed using AP developing buffer supplemented with, p-nitrophenyl phosphate (pNPP)(Sigma-Aldrich) and allowed to develop until color development. The reaction was stopped with the addition of 50 μl (0.1M) NaOH. The absorbance of each reaction was measured using a microplate autoreader (BIO-TEK Instruments Inc.) at […] wavelength. […]

Assay [4] has as its target T3, 6FNIII-domain of Neogenin fused to alkaline phosphatase (Gallus gallus, UniProt Q90610 429-1036).
T3 construct: also called 6FNIII-AP; fibronectin domain; not shown: alkaline phosphatase (AP)
T3 sequence: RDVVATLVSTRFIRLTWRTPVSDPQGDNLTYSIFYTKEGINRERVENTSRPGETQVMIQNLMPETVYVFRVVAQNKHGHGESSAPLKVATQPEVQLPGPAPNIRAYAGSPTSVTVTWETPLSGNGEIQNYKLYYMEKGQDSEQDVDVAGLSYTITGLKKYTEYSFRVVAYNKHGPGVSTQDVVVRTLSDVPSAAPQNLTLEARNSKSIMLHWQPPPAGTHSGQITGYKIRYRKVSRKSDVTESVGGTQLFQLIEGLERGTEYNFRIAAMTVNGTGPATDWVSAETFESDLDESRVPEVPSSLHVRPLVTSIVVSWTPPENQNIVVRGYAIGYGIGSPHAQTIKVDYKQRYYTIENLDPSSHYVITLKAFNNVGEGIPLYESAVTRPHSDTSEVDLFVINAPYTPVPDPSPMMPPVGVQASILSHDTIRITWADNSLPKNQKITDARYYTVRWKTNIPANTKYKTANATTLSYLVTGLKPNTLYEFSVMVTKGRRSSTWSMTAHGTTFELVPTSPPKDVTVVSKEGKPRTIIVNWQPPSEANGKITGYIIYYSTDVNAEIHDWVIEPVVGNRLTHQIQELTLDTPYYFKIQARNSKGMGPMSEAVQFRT
Put plainly: ELISA with AP fusions of Neogenin domains. On the technique in general: ELISA stands for enzyme-linked immunosorbent assay.

Assay [5] deals with T2, His-tagged 4Ig-domain of Neogenin. Put plainly: plate binding assay, AP-tagged fragments on coated His-tagged Neogenin proteins (FIG. 17C). On the procedure:
as §1

Assay [6] addresses T3, 6FNIII-domain of Neogenin fused to …. The assay can be described thus: binding assay, 4Ig-AP and 6FNIII-AP on wells coated with RGMa proteins (FIG. 9B).
Assay [7] addresses T4, 4Ig-domain of Neogenin fused to alkaline phosphatase (Gallus gallus, UniProt Q90610 1-383).
T4 construct: also called 4Ig-AP; not shown: alkaline phosphatase (AP)
T4 sequence: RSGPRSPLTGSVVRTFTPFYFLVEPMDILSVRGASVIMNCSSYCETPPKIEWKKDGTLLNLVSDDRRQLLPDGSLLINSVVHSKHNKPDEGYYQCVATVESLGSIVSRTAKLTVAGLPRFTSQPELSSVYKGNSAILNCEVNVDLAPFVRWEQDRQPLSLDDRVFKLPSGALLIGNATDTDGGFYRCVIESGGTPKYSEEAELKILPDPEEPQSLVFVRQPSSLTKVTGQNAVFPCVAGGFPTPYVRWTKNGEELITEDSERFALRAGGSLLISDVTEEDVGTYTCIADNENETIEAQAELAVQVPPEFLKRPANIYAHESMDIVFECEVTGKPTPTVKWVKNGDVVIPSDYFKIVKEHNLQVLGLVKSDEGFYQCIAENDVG
Put plainly: ELISA with AP fusions of Neogenin domains.

No end group written: not given here.

Turning to “RGMa on the cell membrane (from UniProt Q8JG54 150-404) (ligand)”, in assay [1], the intensity correlation quotient (co-localization in growth cones, immunofluorescence) worked out at 0.32.
Regarding GAEETPEFCTALRAYAHCTRRTARTCRGDLAYHSAVHGIDDLMVQHNCSK (not shown: 6-His tag at the N-terminus) [N-RGMa^50-99 control peptide (amino acid residues 50-99 of RGMa)], in assay [2], the binding result is given as “no binding”.

B1: N-RGMa (28-54aa), AP-tagged (peptide)
chain: SPCKILKCNSEFWAATSGSHHLGAEET
modifications: cysteine pairing not given here; also: alkaline phosphatase tag, sequence and position not given here
notes: not shown: alkaline phosphatase tag of the Psectag2B-AP plasmid
In the case of B1, in assay [3], the binding result is recorded as “no binding (tested: 1.0 µg/mL)”.

B2: N-Raft peptide (amino acids 28-73 of RGMa), His-tagged (peptide)
peptide: SPCKILKCNSEFWAATSGSHHLGAEETPEFCTALRAYAHCTRRTAR
notes: also called N-RGMa^28-73; N-RGMa28-73; not shown: 6-His tag at the N-terminus
On to B2, for which the binding result in assay [4] is “no binding”.

B3: N-RGMa (54-73aa), AP-tagged (peptide)
chain: TPEFCTALRAYAHCTRRTAR
modifications: cysteine pairing not given here; also: alkaline phosphatase tag, sequence and position not given here
notes: also called N-RGMa (55-73aa); not shown: alkaline phosphatase tag of the Psectag2B-AP plasmid
On to B3, for which the binding result in assay [5] is reported as “binds”.

B4: N-RGMa (54-62aa), AP-tagged (peptide)
chain: TPEFCTALR
modifications: also: alkaline phosphatase tag, sequence and position not given here
notes: as for B1
For the molecule B4, the binding result in assay [3] was “no binding (tested: 1.0 µg/mL)”.

B5: N-inh peptide (amino acids 77-113 of RGMa), His-tagged (peptide)
peptide: GDLAYHSAVHGIDDLMVQHNCSKDGPTSQPRLRTLPP
notes: not shown: 6-His tag at the N-terminus; myc tag and 6-His tag at the C-terminus
B5: the binding result is “binds” in assay [6] and “no binding” in assay [7].

B6: N-RGMa (40-62aa), AP-tagged (peptide)
chain: WAATSGSHHLGAEETPEFCTALR
modifications: also: alkaline phosphatase tag, sequence and position not given here
notes: as for B1
For B6, the binding result in assay [5] was “binds”.
